The values that follow come from patent US20200291128A1 (ABEXXA BIOLOGICS, published 2020).

The test addresses T1, HLA-E*0103 (recombinant, refolded with peptide into monomer complexes).
T1 construct: The paragraph names only the allele
Briefly: peptide binding and peptide/HLA-E refold into monomer complexes.

B1: peptide YLLPAIVHI from the protein RNA Helicase (peptide)
peptide: YLLPAIVHI
For the molecule B1, the binding result is on record as “binds”.
